Data from publication PMC5836505.

Legend:
GST-FUS [1] = target: T1, GST-FUS (Homo sapiens, UniProt P35637 1-526); test: EMSA
His-FUS = His-FUS (UniProt P35637 1-526); test: single-molecule TIRF
GST-FUS [2] = target: T1, GST-FUS; test: competition
GST-FUS [3] = target: T1, GST-FUS; test: EMSA; remark: listed apart in the source

T1 sequence (P35637 whole entry): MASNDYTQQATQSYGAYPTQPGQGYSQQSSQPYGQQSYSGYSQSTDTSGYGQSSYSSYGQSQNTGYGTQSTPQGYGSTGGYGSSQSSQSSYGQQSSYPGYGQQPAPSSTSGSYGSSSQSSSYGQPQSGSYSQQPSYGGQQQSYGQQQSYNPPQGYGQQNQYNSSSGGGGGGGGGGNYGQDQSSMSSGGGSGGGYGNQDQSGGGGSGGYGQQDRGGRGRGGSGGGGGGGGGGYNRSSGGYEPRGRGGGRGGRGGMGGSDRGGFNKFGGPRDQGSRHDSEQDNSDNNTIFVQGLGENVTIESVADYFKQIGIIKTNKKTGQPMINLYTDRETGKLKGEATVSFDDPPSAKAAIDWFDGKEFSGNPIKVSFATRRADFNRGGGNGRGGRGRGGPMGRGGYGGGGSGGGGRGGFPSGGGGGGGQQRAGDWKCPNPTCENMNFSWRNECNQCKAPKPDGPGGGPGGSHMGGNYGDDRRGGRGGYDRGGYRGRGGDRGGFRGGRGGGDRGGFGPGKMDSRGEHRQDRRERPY
His-FUS, sequence (P35637 whole entry): as above

B1: miR-200c (Cy5) (ssRNA)
RNA: UAAUACUGCCGGGUAAUGAUGGA
B1: binds (GST-FUS [1]); binds (His-FUS).

B2: miR-200c (untagged) (ssRNA)
RNA: UAAUACUGCCGGGUAAUGAUGGA
B2: binds (GST-FUS [2]).

B3: GGUG oligo (ssRNA)
RNA: UUGUAUUUUGAGCUAGUUUGGUGAC
B3: binds (GST-FUS [3]).
